The assay has as its target GABARAP (human) (UniProt O95166). In words: ITC, GABARAP titrated into the peptide.

The values below come from patent US20210169980A1.

Chain of GABARAP (human) (O95166 whole entry): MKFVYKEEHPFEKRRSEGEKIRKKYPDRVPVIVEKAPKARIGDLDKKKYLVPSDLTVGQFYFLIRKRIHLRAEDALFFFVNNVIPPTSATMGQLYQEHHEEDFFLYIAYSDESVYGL

FAM134B LIR-L E462R (peptide) gave a Kd of 633 nM.

By Kd is commonly meant a measure of binding affinity in units of concentration. Lower therefore signals tighter binding.
